These results are taken from paper PMC9335211.

Test [1] addresses full-length ectodomains (EC1 to EC5) of mouse E-cadherin, wild type (mouse). Kind of test: high-speed atomic force microscopy.
Test [2] addresses mouse E-cadherin full-length ectodomains, W2A mutant (mouse). Put plainly: high-speed atomic force microscopy.

Usually stoichiometry N stands for a count of units in the complex or per binding partner. Turning to “full-length ectodomains (EC1 to EC5) of mouse E-cadherin, wild type (domain or fragment)”, the stoichiometry N in test [1] worked out at 2. In test [2], “mouse E-cadherin full-length ectodomains, W2A mutant (domain or fragment)” came in with a share of the observed dimers that are S-shaped of 45% and a share of the observed dimers that are cross-shaped (X-like dimer) of 20%.
